Data from the nanobody polyreactivity screen of Harvey et al. (2022).

Assay: yeast display, Sf9 membrane polyspecificity reagent, FACS + sequencing; frameworks hold sequencing errors
Outline: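 Polyreactivity labels are assigned by the sorting gate from which each nanobody was recovered. The gates were low and high (top ~1%), set on anti-HA fluorescence for expression and streptavidin fluorescence for reagent binding. Before sorting, galactose-induced (36–48 hours) yeast display cells were stained for 1 hour at 4 °C with 10% biotinylated, detergent-solubilized Sf9 membrane reagent.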
For “QVQLVESGGGLVQAGGSLRLRCAASGRIFRYYAMGWYRQAPGKESELVAAITSSGGSTFYADSVKARFTISRDNAKNTVYLQMNSLKPEDTAVYYCAAPRGTRKTYNSWGQGTQVTVSS”, the “polyreactivity (PSR sort gate)” value was “high polyreactivity”. With “QVQLVESGGGLVQAGGSLRLRCAASGRIFVPYVMGWYRQAPGKERELVASISDSDTSTYYADSVKGRFTISRDNAKNTVYLQMNSLKPEDTAVYYCNVDYWGQGTQVTVSS” the “polyreactivity (PSR sort gate)” value was “low polyreactivity”. In the case of “QVQLVESGGGLVQAGGSLRLRCAASGRIYCDNATGRYRQAPGKESELVAPISDSVVITYYADSVKGRFTISRDNAKNTLYVQMNSLKPEDTAVYYCAADKRGTVYLSSFWMDYWGQGTQVTVSS”, the “polyreactivity (PSR sort gate)” value is reported as “low polyreactivity”. In the case of “QVQLVESGGGLVQAGGSLRLRCAASGRTFDTYAMGWYRQAPWKERELVASITYRGGSTYYADSVKGRFTITRDNAKNTVYLQMNSLKPEDTAVYYCNAKVKRNKRWRGYWGQGTQVTVSS”, the “polyreactivity (PSR sort gate)” value is reported as “high polyreactivity”. With “QVQLVESGGGLVQAGGSLRLRCAASGRTFGGNAMGWYRQAPGKERELVAAISFSGGSTYYADSVKGRFTISRDNAKNTVYLQMNSLKPEDTAVYYCAARYYWSVYADQGDYWGQGTQVTVSS” the “polyreactivity (PSR sort gate)” value was “low polyreactivity”. With “QVQLVESGGGLVQAGGSLRLRCAASGRTFYGYDMGWYRQAPGKERELVATISSGGSTNYADSVKGRFTFSRDNAKNTVYLQMNSLKPEDTAVYYCNADRYVDPRTYFGYDYCGQGTQVTVSS” the “polyreactivity (PSR sort gate)” value was “low polyreactivity”. In the case of “QVQLVESGGGLVQAGGSLRLRCAASGSIFESNAMGWYRQAPGKETEFVAAIDQNDGSTYYADSVKGRFTISRDNAKNTVYLQMNSLKPDDTAVYYCAARCYVYRLTWGDYWGQGTQVTVSS”, the “polyreactivity (PSR sort gate)” value is reported as “low polyreactivity”. For “QVQLVESGGGLVQAGGSLRLRCAASGSIFIGYAMGWYRQAPGKERELVAAITSGSITNYAYSVKGRFTISRDNAKNTVYLLMNSLKPEDTAVYYCNADVNFIDDDYWGQGTQVTVSS”, the “polyreactivity (PSR sort gate)” value was “low polyreactivity”. In the case of “QVQLVESGGGLVQAGGSLRLRCAASGSIFNSYAMGWYRPAPGKERELVAAISIRGTRTYYADSVKGRFTISRDNAKNTVSLQMNSLKPEDSAVSYCAADASSTEGMDFWGQGTQLTVSS”, the “polyreactivity (PSR sort gate)” value is reported as “high polyreactivity”. With “QVQLVESGGGLVQAGGSLRLRCAASGSIFVSNTMGWYRQAPGKEREMVASIRETAGSTNYADSVKGRFTISRDYAKNTVYLQMNSLKPEDTEVYYCAARYSPTRYHYGYWGQGTQVTVSS” the “polyreactivity (PSR sort gate)” value was “low polyreactivity”. With “QVQLVESGGGLVQAGGSLRLRCAASGSSFIWNAMGWYRQAPGKERELVAAISSGGSTYYADSVKGRFTISRDNAKNTVDLQMNSQKPPDTAVYYCAAEYVNNVWEQSYAVYSTDDYWGQGTQVTVSS” the “polyreactivity (PSR sort gate)” value was “low polyreactivity”. For “QVQLVESGGGLVQAGGSLRLRCAASGSTFAVYAMGWYRQAPGKERELVATIRWNGGSTYYADSVKGRFTISRDNAKNTVYLQMNSLKPEDTAVYYCAAPPIRPNLYDYWGQGTQVTVSS”, the “polyreactivity (PSR sort gate)” value was “high polyreactivity”. With “QVQLVESGGGLVQAGGSLRLRCAASGSTFAYYAMGWYRQAPGKERELVAAITASATNTYYADSVKGRFTISRDHAKNTVYLQMNSLKPEDTAVYYCAADDVDVEHQASWDDYDSWGQGTQVTVSS” the “polyreactivity (PSR sort gate)” value was “low polyreactivity”. For “QVQLVESGGGLVQAGGSLRLRCAASGSTFLKNAKGWYRQAPGKERELVAAISYSTTRSYYADSVKGRFTISRDNAKNTVYLQMNSLKPEDTAVYYCAADGYWWTYTRYDYWGQGTQVTVSS”, the “polyreactivity (PSR sort gate)” value was “low polyreactivity”. For “QVQLVESGGGLVQAGGSLRLRCAASGSTFPYNAMGWYRQAPGKERELVAAITSAVGTNYADSVKGRVTISRDNAKNTVYLQMNSLKREDTAVYYCAARYIETPLTVLSLMDYWGQGTQVTVSS”, the “polyreactivity (PSR sort gate)” value was “low polyreactivity”. In the case of “QVQLVESGGGLVQAGGSLRLRCAASGSTFSRYTMGWYRQAPGKERELVAAISKSGGSTYYADSVKGRFTISRDNAKNTVYLQMNSLKPEDTAVYYCAALVRAGTSLDFDYWGQGTQVTVSS”, the “polyreactivity (PSR sort gate)” value is reported as “high polyreactivity”. In the case of “QVQLVESGGGLVQAGGSLRLRCAASGSTFSSYAMGWYRQAPGKERELVAAISSRGGRTYYADSVKARFTISRDNAKNTVYLQMNRLIPEDTAVYYCAADWGVRDEYYYWGQGTQVSVSS”, the “polyreactivity (PSR sort gate)” value is reported as “high polyreactivity”. With “QVQLVESGGGLVQAGGSLRLRCAASGSTFSTNAMGWYSQAPGKERELVASITRSGGSTYYADSVKGRFTISRDNAKNTFYLQMTSLKPEDTAVYYCNADGYYDYDYGFWGQGTQVTVSS” the “polyreactivity (PSR sort gate)” value was “low polyreactivity”. With “QVQLVESGGGLVQAGGSLRLRCAASGSTFVYNGMGWYRQAPGKERELVATISSTGSTNYADSVKGRFTISRDNAKNTVFLQMNSLKPEDTAVYYCATEYITYLAYDYWGQGTQVTVSS” the “polyreactivity (PSR sort gate)” value was “low polyreactivity”. For “QVQLVESGGGLVQAGGSLRLRCAASGSTLSNYAMGWYRQAPGKERELVAAITWSTGSTYYADSVKGRFTISRDNAKNSVYLQMNSLKPEDTAVYYCNAGSQYLLVGLYDYWGQGTQVTVSS”, the “polyreactivity (PSR sort gate)” value was “low polyreactivity”. In the case of “QVQLVESGGGLVQAGGSLRLRCAASGTNSVQYAMGGYRQAPGKERELVAAIDRSGGSTSYADSVKGRFTISRDNAKNTVYLQMNSLKQEDTAVYYCNADPFRSTYSYDYWGQGTQVTVSS”, the “polyreactivity (PSR sort gate)” value is reported as “low polyreactivity”. In the case of “QVQLVESGGGLVQAGGSLRLRCAASGYIFRYYAMGWYRQAPGKEREFVAAISRNGGSTYYADSVKGRFTISRDKAKNTVYLQMNSLKPEDTAVYNCNVVGHDDKYDYWGQGTQVTVSS”, the “polyreactivity (PSR sort gate)” value is reported as “high polyreactivity”. In the case of “QVQLVESGGGLVQAGGSLRLRCAATGSTFVYNAMGWYRPAPGKVRELVARITRSGGSTYYADSVKGRFTISRDNAKNTVYLQMKSLKPEDTAVYYCAKEREGHSVRIGPRYNYWGQGSQVTVSS”, the “polyreactivity (PSR sort gate)” value is reported as “low polyreactivity”. In the case of “QVQLVESGGGLVQAGGSLRLRCASSGRTFRYNAMGWYRQAPGKERELVATISSSGGSTSYADSVKGRFTISRDNAKKTVYLQMNSLKPEDTAVYYCNKRRLVAAGNGMDSWGQGTQVTVSS”, the “polyreactivity (PSR sort gate)” value is reported as “low polyreactivity”. In the case of “QVQLVESGGGLVQAGGSLRLRCASSGSIFHRNAMGWYRQAPGKERELVATITSNGGSTYYADSVKGRFTISRDNAKNTVFLHMNRLKPEDTAVYFCARKYRSPISALLTGDYWGQGTEVTVSS”, the “polyreactivity (PSR sort gate)” value is reported as “low polyreactivity”. With “QVQLVESGGGLVQAGGSLRLRCATSGSIFRIYAMGWYRQAPGKERELVAAIDSGGSTNYADYVKGRFTISRDNAKNTVYFQMNCLKPEDTAVFYCNVEAWWLSYSEYDYWGQGTQVTVSS” the “polyreactivity (PSR sort gate)” value was “high polyreactivity”. For “QVQLVESGGGLVQAGGSLRLRCPASGFIFFWNTMGWYRQAPGKERELVAAISQSGDSTYYADSVKGRFTISRDSAKNTVYLQMNSLKPEDTAVYFWAADKKTITYRYDYWGLGTQVTVSS”, the “polyreactivity (PSR sort gate)” value was “low polyreactivity”. For “QVQLVESGGGLVQAGGSLRLRGAASGSTFIFNVRGWYRQAPGKERELVAVISWSGGSTYYADSVKGRFTISRDNAKNTVYLQMNSLKPEDTAVYYCARDQTFGPSPYDWYYYPGYDYWGQGTQVTVSS”, the “polyreactivity (PSR sort gate)” value was “low polyreactivity”. With “QVQLVESGGGLVQAGGSLRLRSPASGSTLYRYAMGWYRQAPGKERELVAAIYSSGGTTFYADSVKGRFTISRDNAKKTVYLQMKSLKPEDTAVYYCNRTARKLRTVHSSVVGLDYWGQGTQVTVSS” the “polyreactivity (PSR sort gate)” value was “low polyreactivity”. With “QVQLVESGGGLVQAGGSLRLSAATGSTLAGKTMGWYRQASRKERELVAAINDSGGSTYYADSVKGRFTISRDNAKNSVYLQMNSLKPEDTAVYYCNADGYAYIEDGYDYWGQCTQVTVSS” the “polyreactivity (PSR sort gate)” value was “low polyreactivity”. For “QVQLVESGGGLVQAGGSLRLSCAAAGTYKYYAMGWYRQAPGKERELVAASNRGGSTNYADSVKGRFTISRDNAKNTVYLQMNSLKPEDTAVYYCAAERWYVRGRHYFYWGQGTQVTVSS”, the “polyreactivity (PSR sort gate)” value was “high polyreactivity”. With “QVQLVESGGGLVQAGGSLRLSCAACGITFLSNAMGWYRQAPGKERELVAAITTSGGTTYADSVKGRFTISRDNAKNTVYLQMNSLKPEDTAVYYCNAVGYTPRKPSKFDYWGQGTQVTVSS” the “polyreactivity (PSR sort gate)” value was “low polyreactivity”. In the case of “QVQLVESGGGLVQAGGSLRLSCAACGRILWTYAMGLYRQAPGKERELVADISRTGSTNYADSVKGRFTISRDNAKNTVYLQMNSLKPEDTAVYYCAADRWAHTHRLGYWGQGTQVTVSS”, the “polyreactivity (PSR sort gate)” value is reported as “low polyreactivity”. For “QVQLVESGGGLVQAGGSLRLSCAACGRTFYQNAMGWYRQAPGKERELVAAISRSGGSTYYADSVKGRFTISLYNAKNTVYLQMNSLKPEDTAVYFCAADPRSYGGGYDYWGQGTQVTVSS”, the “polyreactivity (PSR sort gate)” value was “high polyreactivity”. In the case of “QVQLVESGGGLVQAGGSLRLSCAACGSIFLKYVMGWYRQAPGKERELVAAISFRSGSTYYADSVKGRFTISRDNAKNTVYVQMNSLKPEDTAVYYCAASWTPRYLGFDHWGQGSQVTVSS”, the “polyreactivity (PSR sort gate)” value is reported as “high polyreactivity”. In the case of “QVQLVESGGGLVQAGGSLRLSCAACGSISVYNAMGWYRQAPGKERELVAAISWSGGRTSYADSVKGRFTISRDNAKNTVYLQMNSLKPEDTAVYYCAADELTVMWDEDYWGQGTQVTVSS”, the “polyreactivity (PSR sort gate)” value is reported as “low polyreactivity”. With “QVQLVESGGGLVQAGGSLRLSCAAPGSTFVYYAMGWFRQAPGKEGELVAAISRSGGHTYYADSVKGRFTISRDKAKKTVYLQMNSLKPEETAVYYCAARSYGVQYYYWGQRTQVTVSS” the “polyreactivity (PSR sort gate)” value was “high polyreactivity”. With “QVQLVESGGGLVQAGGSLRLSCAASAFTFRRYVKGWYRQAPGKERELVAAISSGGRTNYADSVKGRFTISRYNAKNTVYLQMNSLKPEDTAVYYCAADRYSSYYVLYDYWGQGTQVSVSS” the “polyreactivity (PSR sort gate)” value was “high polyreactivity”. In the case of “QVQLVESGGGLVQAGGSLRLSCAASAFTFYYYDMGWYRQAPGKERELVAAIDTSDGSTYYADSVKGRFTISRDNAKNTVYLQMNSLKPEDTAVYYCSAEVDWVPFLLVYWGQGTQVTVSS”, the “polyreactivity (PSR sort gate)” value is reported as “low polyreactivity”. With “QVQLVESGGGLVQAGGSLRLSCAASAFYTNAMGWYRQAPGKERELVAAITSDGDSTYYADSVKGRFTISRDNAKNTVYLQMNSLKPEDNAVYYCAADAVPTSVVDWGFYGMYWGQGTQVTVSS” the “polyreactivity (PSR sort gate)” value was “low polyreactivity”. With “QVQLVESGGGLVQAGGSLRLSCAASALTFHFNAMGWYRQAPGKERELVASITSSGGSTYYADSVKGRFTISRDNAKNTVSLQMNSLKPEDTAVYYCNAEGSSVLTGYWGYPPYWDTYDYSGQGTQVTVSS” the “polyreactivity (PSR sort gate)” value was “low polyreactivity”. In the case of “QVQLVESGGGLVQAGGSLRLSCAASANIFKPNAMGWYRQAPGKERELVAAISDSGGNTYYADSVKGRFTISRDNAKNTVYLQMNSLKPEDTAVYYCARRYYWYSGRYDYWGQGTQVTVSS”, the “polyreactivity (PSR sort gate)” value is reported as “high polyreactivity”. With “QVQLVESGGGLVQAGGSLRLSCAASARIFKLNAMGGYRQAPVKERELVAAINSGTRTYYADSVKGRFSISRDNAKNTVYLQMKSLKPEDTAVYYGAAEGVWWYSRYDYWGQGTQVTVSS” the “polyreactivity (PSR sort gate)” value was “high polyreactivity”.
